Target: the molecule itself
Test: AUC

B1: Archaeoglobus fulgidus alanyl-tRNA synthetase (AlaRS), wild-type, full-length (enzyme, UniProt O28029 1-906, looked up)
chain: MTLDEEYLDITFLTENGFVRKRCPKCGKHFWTADPEREICGDPPCESYSFIGNPVFKKPFELDEMREYYLNFFERRGHGRIERYPVVARWRTDIYLTIASIADFQPFVTSGVAPPPANPLTISQPCIRLDDLDSVGRTGRHLTLFEMMAHHAFNYPGKEIYWKNETVAYCTELLNELGVKKEDIVYKEEPWAGGGNAGPCLEAIVGGLEVATLVFMNLEEHPEGDIEIKGARYRKMDNYIVDTGYGLERFVWASKGTPTVYDAIFPEVVDTIIDNSNVSFNREDERVRRIVAESSKLAGIMGELRGERLNQLRKSVADTVGVSVEELEGIVVPLEKVYSLADHTRCILFMLGDGLVPSNAGAGYLARLMIRRSLRLAEELELGLDLYDLVEMHKKILGFEFDVPLSTVQEILELEKERYRTTVSKGTRLVERLVERKKKLEKDDLIELYDSHGIPVELAVGIAAEKGAEVEMPKDIYAELAKRHSKAEKVQEKKITLQNEYPATEKLYYDDPTLLEFEAEVIGVEGDFVILNRSAFYPESGGQDNDVGYLIANGGKFEVVDVLEADGVVLHVVKGAKPEVGTKVKGVIDSDVRWRHMRHHSATHVLLYSLQKVLGNHVWQAGARKEFSKARLDVTHFRRPSEEEIKEIEMLANREILANKPIKWEWMDRIEAERKFGFRLYQGGVPPGRKIRVVQVGDDVQACGGTHCRSTGEIGMLKILKVESIQDGVIRFEFAAGEAAIEAVEEMERLLREASSILRVEPAKLPKTVERFFEEWKDQRKEIERLKSVIADLWADILMERAEEFDSMKVVAEVVDADMQALQKLAERLAEKGAVGCLMAKGEGKVFVVTFSGQKYDARELLREIGRVAKGSGGGRKDVAQGAVQQLLDREEMLDVIFRFLSEHEG
In the case of B1, the “stoichiometry N” value is reported as 2.

— publication PMC4323281 (Nature, 2014)
